Target: T1, Human Glu-plasminogen
T1 chain: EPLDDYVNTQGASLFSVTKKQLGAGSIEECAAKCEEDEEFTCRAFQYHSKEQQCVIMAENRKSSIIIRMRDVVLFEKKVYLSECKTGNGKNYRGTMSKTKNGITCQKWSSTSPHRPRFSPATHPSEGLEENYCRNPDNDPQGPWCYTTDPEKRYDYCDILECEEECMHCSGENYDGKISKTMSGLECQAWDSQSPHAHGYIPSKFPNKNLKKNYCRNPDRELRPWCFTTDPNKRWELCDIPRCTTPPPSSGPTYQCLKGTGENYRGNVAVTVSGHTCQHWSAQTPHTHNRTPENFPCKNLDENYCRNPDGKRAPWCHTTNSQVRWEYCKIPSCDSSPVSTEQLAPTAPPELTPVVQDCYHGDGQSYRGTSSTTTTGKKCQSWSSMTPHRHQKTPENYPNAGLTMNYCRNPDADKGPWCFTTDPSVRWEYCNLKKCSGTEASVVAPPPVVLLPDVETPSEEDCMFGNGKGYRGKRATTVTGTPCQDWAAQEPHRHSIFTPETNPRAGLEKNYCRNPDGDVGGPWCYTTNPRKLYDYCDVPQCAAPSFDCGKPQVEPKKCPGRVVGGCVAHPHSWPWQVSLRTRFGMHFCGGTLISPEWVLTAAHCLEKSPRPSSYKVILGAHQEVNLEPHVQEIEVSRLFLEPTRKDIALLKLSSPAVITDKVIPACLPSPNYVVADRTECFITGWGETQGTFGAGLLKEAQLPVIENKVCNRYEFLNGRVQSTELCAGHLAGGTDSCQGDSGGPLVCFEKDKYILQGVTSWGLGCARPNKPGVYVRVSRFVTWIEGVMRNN

B1: Human tissue plasminogen activator (protein)
chain: SYQVICRDEKTQMIYQQHQSWLRPVLRSNRVEYCWCNSGRAQCHSVPVKSCSEPRCFNGGTCQQALYFSDFVCQCPEGFAGKCCEIDTRATCYEDQGISYRGTWSTAESGAECTNWNSSALAQKPYSGRRPDAIRLGLGNHNYCRNPDRDSKPWCYVFKAGKYSSEFCSTPACSEGNSDCYFGNGSAYRGTHSLTESGASCLPWNSMILIGKVYTAQNPSAQALGLGKHNYCRNPDGDAKPWCHVLKNRRLTWEYCDVPSCSTCGLRQYSQPQFRIKGGLFADIASHPWQAAIFAKHRRSPGERFLCGGILISSCWILSAAHCFQERFPPHHLTVILGRTYRVVPGEEEQKFEVEKYIVHKEFDDDTYDNDIALLQLKSDSSRCAQESSVVRTVCLPPADLQLPDWTECELSGYGKHEALSPFYSERLKEAHVRLYPSSRCTSQHLLNRTVTDNMLCAGDTRSGGPQANLHDACQGDSGGPLVCLNDGRMTLVGIISWGLGCGQKDVPGVYTKVTNYLDWIRDNMRP
conversion of plasminogen into plasmin (plasmin-selective chromogenic substrate): The time- and concentration-dependent conversion of plasminogen into plasmin at the fibrin-NETs lattice was reduced as compared to fibrin alone

— patent publication US20240288446
